Columns and labels:
[1] = test system: C57BI/6 male mice, colitis induced by TNBS; experiment: Acute inflammatory colitis model induced by TNBS; type: in vivo; conditions: FIG. 3, 2G1 10 μg, RvE1 1 μg per mouse i.p.
Experimental: FIG. 3. […] Mice received 200 μL of the haptenating agent TNBS at 5% in 50% ethanol on day 0 and then were injected with isotype control hIgG1 (10 μg per mouse) (x), RvE1 (1 μg per mouse) daily (•), or 2G1 antibody (10 μg per mouse) three times ( ) for 5 days, or non-treated (wild type animals) (▾). Mice were sacrificed colon length was measured in each condition.
Colitis was induced in 8-10 weeks-old-C57BI/6 male mice by intrarectal injection of 200 μL of the haptenating agent TNBS at 5% in 50% ethanol on day 0. Treatments were injected intra-peritoneally; RvE1 (1 μg per mouse) daily for three days, or 2G1 antibody (10 μg per mouse) twice for 3 days. Colitis follow-up consisting of body weight and stool score (0: normal stool; 4: blood in stool) parameters were performed daily (data not represented). When mice are euthanized, colon length representing the pathology severity was measured.

Mice dendritic cells = experiment: Maturation and differentiation of mice bone marrow derived dendritic cells, activation markers and viability by FACS; type: cell-based
Experimental: FIG. 1. Effect of the anti-CMKLR1 variants 1G1, 2G1, 3G1 and 4G1 chimeric antibodies on the DCs maturation and differentiation. Mice dendritic cells were incubated during maturation phase (24 h or 48 h) followed by a differentiation phase with excipient or RvE1 or anti-CMKLR1 antibodies variants (mutations on positions 1 and 2 of SEQ ID No. 8, corresponding to the VH-CDR3: 1G1 (LL), 2G1 (LI), 3G1 (IL) or 4G1 (II) or isotype controls (hIgG1 or mIgG)). Cells were then stained for FACS analysis with cell marker antibodies: A. CD80-PE; B. CD86-FITC; C. CD103-PerCPCy5.5; D. I/Ab-APC. Mean of Fluorescence was determined in each condition. E and F represent the viability of the cells measured by FACS using LIVE/DEAD® kit from Life Technologies in each condition after 24 or 48 hours of maturation respectively.
FIG. 17. Study of the myeloid cell activation markers after CMKLR1 pathway activation. Dendritic cells incubated in excipient, RvE1, 2G1 or isotype control (hIgG1) were then stained for FACS analysis with marker antibodies: A. CD80-PE. B. CD86-FITC. C. CD103-PerCPCy5.5. D. CD40-PeCy7. E. I/Ab-APC. Mean of Fluorescence was determined in each condition.
Bone marrow cells were harvested and cultured in RPMI medium supplemented with 10% FBS, glutamine and antibiotics and the dendritic cell differentiation was induced by GM-CSF at 20 ng/ml for 7 days. Then, immature dendritic cells (iDC) were collected and cultured for 24 hours with LPS (100 ng/ml) to induce the maturation from iDC to mDC. Treatments were added during differentiation and maturation at 2 μg/ml.
Dendritic cells were resuspended in PBS-FBS-EDTA and incubated with live and dead (LIVE/DEAD® Fixable Dead Cell Stains Yellow-Life Technologies) for 30 minutes on ice. Staining of CD11c-BV711, CD11b-APCCy7, I/Ab-APC, CD103-PerCPCy5.5, CCR7-V450, CD40-PeCy7, CD80-PE, CD86-FITC (all provided by BD Pharmingen) were performed.

[2] = test system: human macrophages M1 or M2; experiment: Human monocyte differentiation and polarization, CD200R by FACS and cytokine secretion by ELISA, FIG. 16; type: cell-based; conditions: human cells, 2 μg/ml
Experimental: FIG. 16. Study of the inflammatory cytokine secretion by human macrophages during CMKLR1 activation. After differentiation of human monocytes, cells were incubated in presence of different isotype controls (mIgG4; hIgG4 or hIgG1 at […]); C7 commercial anti-CMKLR1 antibody (2 μg/ml); 2G4 or 2G1 antibodies (2 μg/ml), or other commercial anti-CMKLR1 antibodies (H6 (2 μg/ml), BZ332 (2 μg/ml) or 84939 (2 μg/ml), C15 peptides (10 nM), or RvE1 (10 ng/ml). A. Expression of the CD200R marker measured by FACS. B. IL10 cytokine secretion by M2 cells. C. CCL17 cytokine secretion by M2 cells. D. represents IL12 cytokine secretion by M1 cells. Secretion of IL10, CCL17 and IL12p40 were assessed by ELISA.
Monocytes were collected from PBMC of buffy coat of healthy volunteers and isolated by magnetic separation or by elutriation. Then, monocytes were cultured with different cocktails of cytokines to generate differentiated unpolarized macrophages or polarized macrophages. This protocol allowed to generate polarized differentiated macrophages in order to have pro-(M1) or anti-(M2) inflammatory macrophages in different wells. Monocytes were plated at 0.5·10^6 cells/mL in complete RPMI (RPMI with 10% FBS, 1% glutamine, 1% antibiotics) and 500 μL of the cell suspension was plated per well in a 24-well plate. 100 ng/ml of M-CSF was added with medium for differentiation of the cells. Cells were incubated 5 days and medium was replaced with fresh medium complemented with 100 ng/ml of M-CSF at day 3. For the polarization phases, solution of LPS-IFNg at 100 ng/ml of LPS and 20 ng/ml of IFNg complemented with isotype controls (mIgG1 or hIgG4) (2 μg/ml) or anti-CMKLR1 antibodies (2 μg/ml) (2G1 or 2G4, H6, BZ332 or 84939) or with C15 peptide (10 nM) or RvE1 (10 ng/ml) during 3 days to generate M1 macrophages. M1-IFNg macrophages could also be generated by adding only IFNg (20 ng/ml) in culture medium. […]
Cytokines secretion was detected by ELISA according to the BD manufacturer instructions. […] TMB supplied by BD Bioscience was used as substrate and colorimetric reaction was read with TECAN.

B1: 2G1: chimeric anti-CMKLR1 antibody, murine variable regions (SEQ ID No: 10 and 17), human IgG1 constant regions; VH-CDR3 variant LI (antibody, V domains shown)
VH: METDTLLLWVLLLWVPGSTGDEVQLVASGGGLVQPGGSLKLSCAASGFTFSSYGMSWVRQTPDRRLELVATINRYGGSTYYPDSVKGRFTISRDNAKNTLYLQMSSLKSEDTAMYYCPRLIYYGNEGDSWGQGTTLTVSS
VL: METDTLLLWVLLLWVPGSTGDQIVLTQSPAIMSASPGEKVTMTCSASSSVSFMHWYQQKSGTSPKRWIYDTTKLTSGVPARFSGSGSGTFYSLTISSMEAEDAATYYCQQWNSKPPLTFGPGTKLELKR
modifications: human IgG1 constant regions
notes: VH-CDR3 variant LI
- colon length [1]: the same as normal animal (wt)
- level of detection of DCs expressing CD103 and IAb (Mice dendritic cells; FIG. 1, FACS, compared with C7 antibody): lower than DCs cells treated with C7 antibody
- DCs activation and/or maturation towards a pro-inflammatory pathway (Mice dendritic cells; FIG. 1, mice dendritic cells, maturation 24 h or 48 h): inhibit DCs activation and/or maturation in a stronger manner than other synthetized antibodies (3G1 and 4G1)
- expression of CD80, CD86, CD103, CD40 and IAb (DC activation markers) (Mice dendritic cells; FIG. 17, FACS, compared to the excipient or isotype control): strong decrease
- viability of cells (Mice dendritic cells; FIGS. 1E and 1F, LIVE/DEAD kit, after 24 or 48 hours of maturation, compared with other antibodies, C7 or Resolvin E1): enhanced
- CCL17 secretion by M2 type macrophages [2]: able to induce
- IL10 secretion by M2 type macrophages [2]: able to induce
- secretion of the IL12p40 cytokine by M1 type macrophages [2]: able to decrease the secretion

— patent US20240400698A1, “ANTI-CHEMOKIN LIKE RECEPTOR 1 ANTIBODIES AND THEIR THERAPEUTIC APPLICATIONS” (OSE IMMUNOTHERAPEUTICS, priority 2018, published 2024)
